These are literature values, as cited in publication PMC10560217.

What is called pKd is the Kd on a negative log10 scale, so that one unit is a factor of ten.

One data set has as its target hIR ECD (Homo sapiens) (UniProt P06213).
Data set [1] deals with dmIR (Drosophila melanogaster) (UniProt P09208).
Data set [2] shares this target. The source holds these as a separate data set.
The target is the same in data set [3]. This is another data set of the same source.

pKd: −log10 of the molar value. Read-outs that look alike come from different tables or passages of the source.

Sequence of dmIR (Drosophila melanogaster) (P09208 44-1310): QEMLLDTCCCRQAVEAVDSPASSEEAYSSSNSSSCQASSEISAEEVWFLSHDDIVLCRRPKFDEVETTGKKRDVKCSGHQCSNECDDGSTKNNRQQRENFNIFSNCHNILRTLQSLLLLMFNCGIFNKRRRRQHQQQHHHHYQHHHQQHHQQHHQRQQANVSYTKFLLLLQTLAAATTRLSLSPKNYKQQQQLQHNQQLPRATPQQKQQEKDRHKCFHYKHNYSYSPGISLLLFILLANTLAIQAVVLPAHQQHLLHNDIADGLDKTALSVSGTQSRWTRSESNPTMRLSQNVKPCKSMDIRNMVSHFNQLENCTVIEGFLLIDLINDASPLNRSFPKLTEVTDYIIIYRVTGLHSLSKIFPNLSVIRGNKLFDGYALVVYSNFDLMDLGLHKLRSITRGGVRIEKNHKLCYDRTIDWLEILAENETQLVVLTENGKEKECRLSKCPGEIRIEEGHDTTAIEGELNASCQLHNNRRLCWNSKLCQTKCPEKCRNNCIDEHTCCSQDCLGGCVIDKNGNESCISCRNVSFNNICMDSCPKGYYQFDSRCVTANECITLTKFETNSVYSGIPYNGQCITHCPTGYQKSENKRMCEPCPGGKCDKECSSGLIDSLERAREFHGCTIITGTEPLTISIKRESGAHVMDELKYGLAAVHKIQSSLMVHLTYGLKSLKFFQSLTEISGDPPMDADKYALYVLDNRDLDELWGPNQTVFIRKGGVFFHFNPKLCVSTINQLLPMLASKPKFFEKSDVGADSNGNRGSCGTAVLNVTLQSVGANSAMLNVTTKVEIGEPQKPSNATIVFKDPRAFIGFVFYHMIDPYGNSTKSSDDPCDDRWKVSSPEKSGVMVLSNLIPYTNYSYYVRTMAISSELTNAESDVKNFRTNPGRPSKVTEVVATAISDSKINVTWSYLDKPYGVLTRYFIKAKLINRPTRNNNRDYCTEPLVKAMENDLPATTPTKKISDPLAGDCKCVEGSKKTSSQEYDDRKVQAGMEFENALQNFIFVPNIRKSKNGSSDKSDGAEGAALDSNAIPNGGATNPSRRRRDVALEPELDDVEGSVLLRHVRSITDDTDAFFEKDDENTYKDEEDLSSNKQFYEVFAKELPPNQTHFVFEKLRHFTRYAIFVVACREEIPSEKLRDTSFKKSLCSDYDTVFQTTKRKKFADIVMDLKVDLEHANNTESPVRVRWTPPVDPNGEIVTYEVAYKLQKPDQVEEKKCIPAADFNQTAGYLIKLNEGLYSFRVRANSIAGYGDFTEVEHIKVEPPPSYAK
Sequence of DILP5 C4 (Q7KUD5 23-50): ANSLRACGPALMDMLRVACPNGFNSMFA
Sequence of DILP5 C4 (Q7KUD5 87-108): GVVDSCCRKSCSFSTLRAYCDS
Sequence of DILP5 DB (Q7KUD5 84-108): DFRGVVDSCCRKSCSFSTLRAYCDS
Sequence of insulin (P01308 90-110): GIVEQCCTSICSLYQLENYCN

Turning to insulin (from UniProt P01308), the pKd in the data set with hIR ECD (Homo sapiens) was 7.52.

For the substance DILP5 C4 (from UniProt Q7KUD5), in data set [1], the pKd is 9.12.

As for hIGF-1 (from UniProt P05019), the pKd in data set [2] is 5.23.

Turning to DILP5 DB (from UniProt Q7KUD5), the pKd in data set [3] is 9.46.
